The labels stand for the following.
B1: Lon protease homolog, mitochondrial (Homo sapiens), P36776-1 (parent)
chain: MAASTGYVRLWGAARCWVLRRPMLAAAGGRVPTAAGAWLLRGQRTCDASPPWALWGRGPAIGGQWRGFWEASSRGGGAFSGGEDASEGGAEEGAGGAGGSAGAGEGPVITALTPMTIPDVFPHLPLIAITRNPVFPRFIKIIEVKNKKLVELLRRKVRLAQPYVGVFLKRDDSNESDVVESLDEIYHTGTFAQIHEMQDLGDKLRMIVMGHRRVHISRQLEVEPEEPEAENKHKPRRKSKRGKKEAEDELSARHPAELAMEPTPELPAEVLMVEVENVVHEDFQVTEEVKALTAEIVKTIRDIIALNPLYRESVLQMMQAGQRVVDNPIYLSDMGAALTGAESHELQDVLEETNIPKRLYKALSLLKKEFELSKLQQRLGREVEEKIKQTHRKYLLQEQLKIIKKELGLEKDDKDAIEEKFRERLKELVVPKHVMDVVDEELSKLGLLDNHSSEFNVTRNYLDWLTSIPWGKYSNENLDLARAQAVLEEDHYGMEDVKKRILEFIAVSQLRGSTQGKILCFYGPPGVGKTSIARSIARALNREYFRFSVGGMTDVAEIKGHRRTYVGAMPGKIIQCLKKTKTENPLILIDEVDKIGRGYQGDPSSALLELLDPEQNANFLDHYLDVPVDLSKVLFICTANVTDTIPEPLRDRMEMINVSGYVAQEKLAIAERYLVPQARALCGLDESKAKLSSDVLTLLIKQYCRESGVRNLQKQVEKVLRKSAYKIVSGEAESVEVTPENLQDFVGKPVFTVERMYDVTPPGVVMGLAWTAMGGSTLFVETSLRRPQDKDAKGDKDGSLEVTGQLGEVMKESARIAYTFARAFLMQHAPANDYLVTSHIHLHVPEGATPKDGPSAGCTIVTALLSLAMGRPVRQNLAMTGEVSLTGKILPVGGIKEKTIAAKRAGVTCIVLPAENKKDFYDLAAFITEGLEVHFVEHYREIFDIAFPDEQAEALAVER
partner: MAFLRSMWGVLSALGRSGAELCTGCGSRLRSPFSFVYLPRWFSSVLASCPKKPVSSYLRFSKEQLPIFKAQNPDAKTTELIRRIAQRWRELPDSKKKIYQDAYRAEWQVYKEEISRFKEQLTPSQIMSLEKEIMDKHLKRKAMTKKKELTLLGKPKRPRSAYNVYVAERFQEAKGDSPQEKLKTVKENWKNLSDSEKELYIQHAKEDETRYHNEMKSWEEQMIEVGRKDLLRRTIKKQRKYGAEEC

In the assay the parent is B1. To be noted: with tfam_human TFAM.
Regarding P676S, the “effect of a mutation on the interaction” value is recorded as “with no effect”.

On to R721G, for which the “effect of a mutation on the interaction” value is recorded as “with no effect”.

(Values after IntAct's records for PubMed 25574826.)
